Values of other authors, collected in patent publication US20190275108A1, “COMPOSITIONS IN THE FORM OF AN INJECTABLE AQUEOUS SOLUTION COMPRISING AMYLIN, AN AMYLIN RECEPTOR AGONIST OR AN AMYLIN ANALOGUE AND A CO-POLYAMINO ACID” (ADOCIA, priority 2017, published 2019).
Read-outs that look alike come from different tables or passages of the source.

## amylin: peptide of 37 amino acids, co-stored and co-secreted with insulin (KCNTATCATQRLANFLVHSSNNFGAILSSTNVGSNTY; Islet amyloid polypeptide; UniProt P10997 34-70, looked up)
Acidic pH
  Time for which amylin is stable: about fifteen
Neutral pH
  Time for which amylin is stable: less than a minute
